The assay has as its target Gly4→Compound A mutant myoglobin (myoglobin containing β-O-GlcNAc-L-serine at position 4, C-terminal His6 tag) (UniProt P02185). Briefly: ELISA-like assay: 200 ng myoglobin immobilized, biotinylated BSII, streptavidin-alkaline phosphatase, p-nitrophenyl phosphate, A405.

Chain of Gly4→Compound A mutant myoglobin (myoglobin containing β-O-GlcNAc-L-serine at position 4, C-terminal His6 tag) (P02185 other isoform, or with tags, fused parts or gaps mutant): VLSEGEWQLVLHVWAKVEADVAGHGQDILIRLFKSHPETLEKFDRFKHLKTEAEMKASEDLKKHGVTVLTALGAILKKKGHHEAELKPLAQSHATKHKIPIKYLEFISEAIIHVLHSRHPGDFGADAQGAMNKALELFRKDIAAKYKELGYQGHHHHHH

As to “GlcNAc-specific lectin, Bandeiraea simplicifolia II (BSII), biotinylated”, the fold signal (A405) against wild-type myoglobin was greater than 200 fold.

The record behind these values is patent US20040138106A1.
